Experimental data taken from patent US20170183403A1 (UNIVERSIT T Z RICH, published 2017).

Columns and labels:
Reference peptide no. 26 = biological target: T1, Reference peptide no. 26; assay: peptide microarray (RepliTope)
T1 construct: hIL-2 15-mer, first library, on microarray; also called peptide 26
T1 peptide: KNFHLRPRDLISNIN
Description: (§1) Additional incubations are with unrelated antibodies from the same isotype (mouse control IgG2a/lambda and mouse control IgG2a/kappa), and secondary antibodies (anti-mouse IgG (Thermo 84545, label DL650) or anti-mouse IgG (JIR 115-175-072, Label Cy5)) to assess unspecific binding due to the detection antibody. The experiments are performed essentially as described in Maksimov P, et al. 2012, PLoS One 7:e34212. doi:10.1371/journal. pone. 0034212.
(§2) The determination of peptide-antibody binding was performed by RepliTope-analysis where the peptide microarray (triplicate) was incubated with the primary antibody followed by a fluorescently labelled secondary antibody directed against the Fc-part of the primary one. All steps were performed on a TECAN microarray processing station enabling highly reliable and reproducible washing and incubation steps. After performing the incubation steps and subsequent to the final washing steps (to remove the unbound secondary antibodies) the microarrays were dried using a nitrogen stream and scanned in a high resolution microarray scanning system with appropriate wavelength settings. Control incubations were performed with an unrelated antibody having the same isotype to exclude false positive signals.
(§3) The resulting images were analyzed und quantified using spot-recognition software GenePix (Molecular Devices). For each spot, the mean signal intensity was extracted (between 0 and 65535 arbitrary units). For further data evaluation, the MMC2 values were determined. The MMC2 equals the mean value of all three instances on the microarray. Except the coefficient of variation (CV)—standard-deviation divided by the mean value—is larger 0.5, in this case the mean of the two closest values (MC2) is assigned to MMC2.

Reference peptide no. 11 [1] = biological target: T2, Reference peptide no. 11; assay: peptide microarray (RepliTope)
T2 construct: hIL-2 15-mer, first library, on microarray; also called peptide 11
T2 peptide: YKNPKLTRMLTFKFY
Description: as §1, §2, §3

Reference peptide no. 25 = biological target: T3, Reference peptide no. 25; assay: peptide microarray (RepliTope)
T3 construct: hIL-2 15-mer, first library, on microarray; also called peptide 25
T3 peptide: AQSKNFHLRPRDLIS
Description: as §1, §2, §3

Reference peptide no. 13 [2] = biological target: T4, Reference peptide no. 13; assay: peptide microarray (RepliTope)
T4 construct: hIL-2 15-mer, first library, on microarray; also called peptide 13
T4 peptide: TRMLTFKFYMPKKAT
Description: as §1, §2, §3

Reference peptide no. 22 = biological target: T5, Reference peptide no. 22; assay: peptide microarray (RepliTope)
T5 construct: hIL-2 15-mer, first library, on microarray; also called peptide 22
T5 peptide: KPLEEVLNLAQSKNF
Description: as §1, §2, §3

Reference peptide no. 12 [3] = biological target: T6, Reference peptide no. 12; assay: peptide microarray (RepliTope)
T6 construct: hIL-2 15-mer, first library, on microarray; also called peptide 12
T6 peptide: PKLTRMLTFKFYMPK
Description: as §1, §2, §3

Reference peptide no. 10 [4] = biological target: T7, Reference peptide no. 10; assay: peptide microarray (RepliTope)
T7 construct: hIL-2 15-mer, first library, on microarray; also called peptide 10
T7 peptide: INNYKNPKLTRMLTF
Description: as §1, §2, §3

Reference peptide no. 23 = biological target: T8, Reference peptide no. 23; assay: peptide microarray (RepliTope)
T8 construct: hIL-2 15-mer, first library, on microarray; also called peptide 23
T8 peptide: EEVLNLAQSKNFHLR
Description: as §1, §2, §3

Reference peptide no. 24 = biological target: T9, Reference peptide no. 24; assay: peptide microarray (RepliTope)
T9 construct: hIL-2 15-mer, first library, on microarray; also called peptide 24
T9 peptide: LNLAQSKNFHLRPRD
Description: as §1, §2, §3

Reference peptide no. 11 [5] = biological target: T2, Reference peptide no. 11; assay: peptide microarray (RepliTope), Ala mutagenesis set
Reference peptide no. 49 = biological target: T10, Reference peptide no. 49; assay: as above
T10 construct: second library: peptide 13 with Y(65) to Ala; also called peptide 49
T10 peptide: TRMLTFKFAMPKKAT

Reference peptide no. 47 = biological target: T11, Reference peptide no. 47; assay: as above
T11 construct: second library: peptide 11 with Y(65) to Ala; also called peptide 47
T11 peptide: YKNPKLTRMLTFKFA

Reference peptide no. 52 = biological target: T12, Reference peptide no. 52; assay: as above
T12 construct: second library: peptide 11 with F(62) and Y(65) to Ala; also called peptide 52
T12 peptide: YKNPKLTRMLTAKFA

Reference peptide no. 45 = biological target: T13, Reference peptide no. 45; assay: as above
T13 construct: second library: peptide 13 with F(62) to Ala; also called peptide 45
T13 peptide: TRMLTAKFYMPKKAT

Reference peptide no. 44 [6] = biological target: T14, Reference peptide no. 44; assay: as above
T14 construct: second library: peptide 12 with F(62) to Ala; also called peptide 44
T14 peptide: PKLTRMLTAKFYMPK

Reference peptide no. 13 [7] = biological target: T4, Reference peptide no. 13; assay: as above
Reference peptide no. 43 = biological target: T15, Reference peptide no. 43; assay: as above
T15 construct: second library: peptide 11 with F(62) to Ala; also called peptide 43
T15 peptide: YKNPKLTRMLTAKFY

Reference peptide no. 42 = biological target: T16, Reference peptide no. 42; assay: as above
T16 construct: second library: peptide 10 with F(62) to Ala; also called peptide 42
T16 peptide: INNYKNPKLTRMLTA

Reference peptide no. 12 [8] = biological target: T6, Reference peptide no. 12; assay: as above
Reference peptide no. 10 [9] = biological target: T7, Reference peptide no. 10; assay: as above
Reference peptide no. 58 = biological target: T17, Reference peptide no. 58; assay: peptide microarray (RepliTope), 15-mers
T17 construct: second library: peptide 22 with L(92) to Ala; also called peptide 58
T17 peptide: KPLEEVLNAAQSKNF
Description: as §1, §2, §3

Reference peptide no. 30 = biological target: T18, Reference peptide no. 30; assay: peptide microarray (RepliTope), 15-mers
T18 construct: hIL-2 15-mer, first library, on microarray; also called peptide 30
T18 peptide: NINVIVLELKGSETT
Description: as §1, §2, §3

Reference peptide no. 44 [10] = biological target: T14, Reference peptide no. 44; assay: peptide microarray (RepliTope), 15-mers
Description: as §1, §2, §3

Reference peptide no. 39 = biological target: T19, Reference peptide no. 39; assay: peptide microarray (RepliTope), 15-mers
T19 construct: hIL-2 15-mer, first library, parental Cys replaced by Ser, on microarray; also called peptide 39
T19 peptide: VEFLNRWITFSQSII
Description: as §1, §2, §3

Reference peptide no. 27 = biological target: T20, Reference peptide no. 27; assay: peptide microarray (RepliTope), 15-mers
T20 construct: hIL-2 15-mer, first library, on microarray; also called peptide 27
T20 peptide: HLRPRDLISNINVIV
Description: as §1, §2, §3

Reference peptide no. 1 = biological target: T21, Reference peptide no. 1; assay: peptide microarray (RepliTope), 15-mers
T21 construct: hIL-2 15-mer, first library, on microarray; also called peptide 1
T21 peptide: APTSSSTKKTQLQLE
Description: as §1, §2, §3

signal intensity after subtraction of control signal (Reference peptide no. 26): 0 AU
signal intensity after subtraction of control signal (Reference peptide no. 11 [1]): 1190 AU
signal intensity after subtraction of control signal (Reference peptide no. 25): 0 AU
signal intensity after subtraction of control signal (Reference peptide no. 13 [2]): 224 AU
signal intensity after subtraction of control signal (Reference peptide no. 22): 0 AU
signal intensity after subtraction of control signal (Reference peptide no. 12 [3]): 1130 AU
signal intensity after subtraction of control signal (Reference peptide no. 10 [4]): 20900 AU
signal intensity after subtraction of control signal (Reference peptide no. 23): 32 AU
signal intensity after subtraction of control signal (Reference peptide no. 24): 282 AU
binding result (Reference peptide no. 58): no binding
binding result (Reference peptide no. 30): no binding
binding result (Reference peptide no. 44 [10]): no binding
binding result (Reference peptide no. 39): no binding
binding result (Reference peptide no. 27): no binding
binding result (Reference peptide no. 1): no binding
B1: NARA1 (antibody, mouse IgG2a, kappa, V domains shown)
VH: QVQLQQSGAELVRPGTSVKVSCKASGYAFTNYLIEWVKQRPGQGLEWIGVINPGSGGTNYNEKFKGKATLTADKSSSTAYMQLSSLTSDDSAVYFCARWRGDGYYAYFDVWGAGTTVTVSS
VL: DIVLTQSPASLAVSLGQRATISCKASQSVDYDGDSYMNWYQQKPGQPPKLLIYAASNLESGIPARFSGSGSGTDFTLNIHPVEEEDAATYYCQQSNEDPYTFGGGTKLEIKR
notes: Mouse monoclonal from hybridoma; Isotype controls used were mouse IgG2a; also called anti-IL2 (NARA1) antibody; monoclonal antibody NARA1
signal intensity after subtraction of control signal (Reference peptide no. 11 [5]): 1190 AU
signal intensity after subtraction of control signal (Reference peptide no. 49): 1490 AU
signal intensity after subtraction of control signal (Reference peptide no. 47): 251 AU
signal intensity after subtraction of control signal (Reference peptide no. 52): 238 AU
signal intensity after subtraction of control signal (Reference peptide no. 45): 0 AU
signal intensity after subtraction of control signal (Reference peptide no. 44 [6]): 432 AU
signal intensity after subtraction of control signal (Reference peptide no. 13 [7]): 224 AU
signal intensity after subtraction of control signal (Reference peptide no. 43): 507 AU
signal intensity after subtraction of control signal (Reference peptide no. 42): 162 AU
signal intensity after subtraction of control signal (Reference peptide no. 12 [8]): 1130 AU
signal intensity after subtraction of control signal (Reference peptide no. 10 [9]): 20900 AU
